The target of assay [1] is T1, Recombinant human Factor IX (rhFIX, Genetics Institute) (human, UniProt P00740 47-461). Briefly: isothermal titration calorimetry. On the procedure:
(§1) The interactions between rhFIX and SB 249417 , BC2 and other humanized constructs were characterized by titration microcalorimetry, which measures binding interactions in solution from the intrinsic heat of binding. Nine injections of 106 uM FIX were made into the calorimeter containing 2 uM mAb SB 249417. Binding was detected in the first 4 injections as exothermic heats. At the last 5 injections the mAb binding sites were saturated with FIX and only background heats of mixing were observed. […] Nonlinear least squares analysis of the data yield the binding affinity.
For orientation: In ITC the heat of successive injections is recorded.

The target of assay [2] is T1, Recombinant human Factor IX (rhFIX, …). Description: isothermal titration calorimetry, 25 C. On the procedure:
as §1

The target is the same in assay [3]. Briefly: titration calorimetry, 37 C, 10 mM CaCl2. The procedure:
as §1

Assay [4] has the same target. Briefly: biosensor (BIAcore). On the procedure:
(§2) The kinetics of Factor IX binding to SB 249417 was assessed by BIAcore analysis with antibody bound to an immobilized protein A surface. Recombinant human Factor IX (rhFIX, Genetics Institute) at 49 nM was used and measurements performed in the presence of 5 mM Ca²⁺.
(In general: SPR reads the build-up and loss of mass on a sensor chip optically.)

Assay [5] shares this target. Briefly: titration calorimetry, calculated for 25 C by the van't Hoff equation, 10 mM CaCl2. On the procedure:
as §1

Assay [6] has the same target. Description: SPR (BIAcore), antibody bound to immobilized protein A, rhFIX in solution, 5 mM Ca2+. On the procedure:
as §2

Assay [7] shares this target. Description: SPR (BIAcore), calculated from kinetics. On the procedure:
as §2

Assay [8] shares this target. Description: titration calorimetry. The procedure:
as §1

Assay [9] shares this target. Briefly: titration microcalorimetry, 106 uM FIX injected into 2 uM mAb. On the procedure: as §1
The target is the same in assay [10]. Description: SPR (BIAcore), antibody bound to immobilized protein A, Factor IX in solution. The procedure: as §2
A further assay concerns the target human Factor IX (human, UniProt P00740 47-461). Briefly: cell-based or functional assay.
The target in assay [11] is IX K5A (Factor IX having a lysine to alanine substitution at residue 5) (UniProt P00740 47-461, K5A). Briefly: SPR (BiaCore 2000), BC2 coupled to the chip, 200 nM construct, 5 mM CaCl2. On the procedure: (§3) A library of chimeric constructs composed of sequences of Factor IX spliced into the framework of the homologous protein Factor VII was constructed and used to map the epitope for the Factor IX BC2 mAb. See Cheung et al., Thromb. Res. 80, 419-427 (1995). Binding was measured using a BiaCore 2000 surface plasmon resonance device. The BC2 antibody was coupled directly to the chip using the NHS/EDC reaction. Binding was measured by 2 min of contact time at 20 uL/min with 200 nM of each of the given constructs in 25 mM MOPS, pH 7.4, 0.15 M NaCl, 5 mM CaCl2. Dissociation was monitored for 3 min using the same buffer with no protein. No binding was detected to the wild type construct in the presence of 50 mM EDTA.
Chain of IX K5A (Factor IX having a lysine to alanine substitution at residue 5) (P00740 47-461 K51A): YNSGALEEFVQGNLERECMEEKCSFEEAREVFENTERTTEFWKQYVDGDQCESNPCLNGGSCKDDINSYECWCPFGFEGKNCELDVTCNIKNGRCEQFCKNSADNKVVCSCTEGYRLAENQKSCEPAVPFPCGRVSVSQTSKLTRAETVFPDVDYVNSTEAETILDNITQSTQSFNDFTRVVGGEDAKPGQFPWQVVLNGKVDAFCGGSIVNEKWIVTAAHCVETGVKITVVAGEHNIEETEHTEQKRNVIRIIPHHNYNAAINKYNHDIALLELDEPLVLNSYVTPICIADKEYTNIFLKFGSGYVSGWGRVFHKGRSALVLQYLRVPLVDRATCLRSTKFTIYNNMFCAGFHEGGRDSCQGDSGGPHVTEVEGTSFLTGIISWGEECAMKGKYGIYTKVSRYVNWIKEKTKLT

Another assay deals with T2, VII-A/IX (UniProt P08709 61-105; P00740 93-461, limits assumed).
T2 construct: The make-up is read from the label by analogy with IX-A/VII
Briefly: SPR (BiaCore 2000), BC2 coupled to the chip, construct injected, 5 mM CaCl2. On the procedure:
as §3

The target of a further assay is T3, Plasma VII (UniProt P08709 61-466).
T3 construct: also called Factor VII
T3 sequence (looked up): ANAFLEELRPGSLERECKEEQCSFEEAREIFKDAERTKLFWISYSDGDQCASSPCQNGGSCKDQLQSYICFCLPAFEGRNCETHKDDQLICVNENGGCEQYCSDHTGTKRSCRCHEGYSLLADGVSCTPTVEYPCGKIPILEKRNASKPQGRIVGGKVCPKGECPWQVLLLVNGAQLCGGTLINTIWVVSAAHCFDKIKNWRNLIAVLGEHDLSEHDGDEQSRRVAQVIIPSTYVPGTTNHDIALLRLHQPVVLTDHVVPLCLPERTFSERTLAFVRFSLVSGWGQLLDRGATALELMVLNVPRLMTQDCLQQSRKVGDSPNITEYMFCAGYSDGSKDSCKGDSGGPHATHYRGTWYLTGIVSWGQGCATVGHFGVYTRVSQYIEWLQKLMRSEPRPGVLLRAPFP
The description is as above. The procedure:
as §3

Here are results for 8 molecules from patent US20070224198A1 (GlaxoSmithKline, published 2007).

Usually Kd stands for the concentration at which binding is half-saturated. Usually koff stands for the first-order rate constant of dissociation. By kon is commonly meant the rate constant with which the complex forms.

T1 sequence (P00740 47-461 limits assumed): as the sequence (P00740 47-461 K51A) above, with A5K counted along it
Chain of human Factor IX (P00740 47-461 limits assumed): as the sequence (P00740 47-461 K51A) above, with A5K counted along it

B1: humanized anti-human Factor IX monoclonal antibody SB 249417 (antibody, V domains shown)
VH: QVQLVQSGSELKKPGASVKVSCKASGYTFTNYGMNWVRQAPGQGLKWMGWINTRNGKSTYVDDFKGRFVFSLDSSVSTAYLQISSLKADDTAVYYCTREGNMDGYFPFTYWGQGTLVTVSS
VL: QIVLTQSPSSLSASVGDRVTITCRASSSVNYMHWYQQKPGKAPKPWIYATSNLASGVPSRFSGSGSGTDYTFTISSLQPEDIATYYCQQWSINPRTFGQGTKVEIKR
notes: also called F9HZHC 1-1 / F9HZLC 2-0
Regarding B1, the “Stoichiometry of Factor IX Binding” value in assay [1] was 1.5 moles Factor IX : 1 mole mAb. In addition, the Kd was 4 nM in [2]; 12 nM in assay [3]; 2 nM in [4]; 4 nM in assay [5]; 1.9 nM in assay [7]. The koff in [4] amounted to 0.0004 s⁻¹; in [6] it was 0.00041 s⁻¹. For the same molecule, the kon in assay [4] and in assay [6] was 200000 M⁻¹ s⁻¹ each time. For the same molecule, the “Molar Binding Ratio FIX/mAb” value in [8] worked out at 1.5 FIX/mAb. Also, the “molar binding ratio at the equivalence point” value in [9] is roughly 2 FIX per mAb.

B2: humanized anti-human Factor IX monoclonal antibody SB 249415 (antibody, human IgG1, V domains shown)
VH: QVQLVQSGSELKKPGASVKVSCKASGYTFTNYGMNWVRQAPGQGLKWMGWINTRNGKSTYVDDFKGRFVFSLDSSVSTAYLQISSLKADDTAVYYCTREGNMDGYFPFTYWGQGTLVTVSS
VL: EIVLTQSPATLSLSPGERATLSCRASSSVNYMHWYQQRPGQAPKPWIYATSNLASGVPARFSGSGSGTDFTLTISSLEPEDFAVYYCQQWSINPRTFGGGTKVEIKR
notes: Human IgG1 and kappa constant regions from the vectors; also called F9HZHC 1-1 / F9HZLC 1-1
Turning to B2, the Kd was 7 nM in assay [3], 3 nM in assay [5] and 1.1 to 2.3 nM in assay [7]. Moreover, in assay [8], the “Molar Binding Ratio FIX/mAb” value was found to be 1.7 FIX/mAb. The koff in assay [10] came out at 0.00018 s⁻¹. The kon in assay [10] worked out at 750000 M⁻¹ s⁻¹.

B3: humanized anti-human Factor IX monoclonal antibody SB 257731 (antibody, human IgG1, V domains shown)
VH: QVQLVQSGSELKKPGASVKVSCKASGYTFTNYGMNWVRQAPGQGLKWMGWINTRNGKSTYVDDFKGRFVFSLDSSVSTAYLQISSLKADDTAVYYCTREGNMDGYFPFTYWGQGTLVTVSS
VL: QIVLTQSPATLSLSPGERATLSCRASSSVNYMHWYQQRPGQAPKPWIYATSNLASGVPARFSGSGSGTDYTLTISSLEPEDFAVYYCQQWSINPRTFGGGTKVEIK
notes: Human IgG1 and kappa constant regions from the vectors; also called F9HZHC 1-1 / F9HZLC 1-3
B3: the Kd in assay [7] is 1.1 nM. Further, in assay [10], the koff turned out to be 0.00099 s⁻¹ and the kon came out at 920000 M⁻¹ s⁻¹.

B4: humanized anti-human Factor IX monoclonal antibody SB 257732 (antibody, human IgG1, V domains shown)
VH: QIQLVQSGSELKKPGASVKVSCKASGYTFTNYGMNWVRQAPGQGLEWMGWINTRNGKSTYVDDFKGRFVFSLDTSVSTAYLQISSLKAEDTAVYFCTREGNMDGYFPFTYWGQGTLVTVSS
VL: QIVLTQSPSSLSASVGDRVTITCRASSSVNYMHWYQQKPGKAPKPWIYATSNLASGVPSRFSGSGSGTDYTLTISSLQPEDFATYYCQQWSINPRTFGGGTKLEIKR
notes: Human IgG1 and kappa constant regions from the vectors; also called F9HZHC 3-0 / F9HZLC 3-0
Consider B4, for which the Kd is 9 nM in assay [3], 4 nM in assay [5] and 1.5 nM in assay [7]. Also, in assay [8], the “Molar Binding Ratio FIX/mAb” value was 1.8 FIX/mAb. Further, the koff in assay [10] came to 0.0012 s⁻¹. In addition, the kon in assay [10] stood at 1.1e+06 M⁻¹ s⁻¹.

B5: humanized anti-human Factor IX monoclonal antibody SB 249416 (antibody, human IgG1, V domains shown)
VH: QVQLVQSGSELKKPGASVKVSCKASGYTFTNYGMNWVRQAPGQGLKWMGWINTRNGKSTYVDDFKGRFVFSLDSSVSTAYLQISSLKADDTAVYYCTREGNMDGYFPFTYWGQGTLVTVSS
VL: EIVLTQSPATLSLSPGERATLSCRASSSVNYMHWYQQRPGQAPKPWIYATSNLASGVPARFSGSGSGTDYTLTISSLEPEDFAVYYCQQWSINPRTFGGGTKVEIKR
notes: Human IgG1 and kappa constant regions from the vectors; also called F9HZHC 1-1 / F9HZLC 1-2
With B5, the Kd in [7] was 0.8 nM. Besides, in [10], the koff was 0.00041 s⁻¹ and the kon came to 520000 M⁻¹ s⁻¹.

B6: humanized anti-human Factor IX monoclonal antibody SB 249413 (antibody, human IgG1, V domains shown)
VH: QVQLVQSGSELKKPGASVKVSCKASGYTFTNYGMNWVRQAPGQGLEWMGWINTRNGKSTYVDDFKGRFVFSLDTSVSTAYLQISSLKADDTAVYYCAREGNMDGYFPFTYWGQGTLVTVSS
VL: EIVLTQSPATLSLSPGERATLSCRASSSVNYMHWYQQRPGQAPRLLIYATSNLASGIPARFSGSGSGTDFTLTISSLEPEDFAVYYCQQWSINPRTFGGGTKVEIKR
notes: also called F9HZHC 1-0 / F9HZLC 1-0
In the case of B6, the Kd in assay [3] is 12 nM; in assay [5], 6 nM; in [7] it was 3.7 to 5.1 nM. Further, the “Molar Binding Ratio FIX/mAb” value in assay [8] is 1.9 FIX/mAb. Further, the koff in [10] came out at 0.0028 s⁻¹. For the same molecule, in assay [10], the kon came to 650000 M⁻¹ s⁻¹.

B7: murine anti-Factor IX monoclonal antibody BC2 (antibody, mouse IgG2a, V domains shown)
VH: QIQLVQSGPELKKPGETVKISCKASGYTFTNYGMNWVKQAPGKGLKWMGWINTRNGKSTYVDDFKGRFAFSLESSASTANLQIDNLKDEDTATYFCTREGNMDGYFPFTYWGQGTLVTVSA
VL: QIVLSQSPAILSASPGEKVTMTCRASSSVNYMHWYQQKPGSSPKPWIYATSNLASGVPARFSGSGSGTSYSLTISRVEAEDAATYYCQQWSINPRTFGGGTKLEIKR
notes: also called BC2 mAb; BC2 Antibody
For B7, the dissociation constant (Kd) in assay [3] is 20 nM; in assay [5] it was 10 nM; in assay [7], 1.9 nM. The “IC50, nM (aPTT clotting time of human plasma)” value with human Factor IX was roughly 50 nM. Further, the binding result is recorded as “binds” in [11], “no binding (tested: 200 nM)” with VII-A/IX and “no binding (tested: 200 nM)” with Plasma VII. Further, the “Molar Binding Ratio FIX/mAb” value in assay [8] is 1.4 FIX/mAb. Besides, the koff in assay [10] turned out to be 0.00091 s⁻¹. Further, the association rate constant (kon) in assay [10] was 480000 M⁻¹ s⁻¹.

B8: mouse-human chimeric anti-Factor IX monoclonal antibody chαFIX (antibody, V domains shown)
VH: QIQLVQSGPELKKPGETVKISCKASGYTFTNYGMNWVKQAPGKGLKWMGWINTRNGKSTYVDDFKGRFAFSLESSASTANLQIDNLKDEDTATYFCTREGNMDGYFPFTYWGQGTLVTVSA
VL: QIVLSQSPAILSASPGEKVTMTCRASSSVNYMHWYQQKPGSSPKPWIYATSNLASGVPARFSGSGSGTSYSLTISRVEAEDAATYYCQQWSINPRTFGGGTKLEIK
notes: BC2 variable regions with human constant regions; also called Chf9; F9CHHC / F9CHLC
Regarding B8, the Kd in assay [7] is 1.3 nM. Further, in assay [10], the koff amounted to 0.0003 s⁻¹ and the kon amounted to 240000 M⁻¹ s⁻¹.
